Data from publication PMC7271899, “Bayesian modeling reveals metabolite‐dependent ultrasensitivity in the cyanobacterial circadian clock” (Molecular Systems Biology, 2020).

T1: KaiA (Synechococcus elongatus, UniProt Q79PF6 1-284)
T1 construct: KaiA, circadian clock protein of Synechococcus elongatus; source: expressed and purified as previously described (Phong et al, 2013); anion exchange on HiTrap Q columns
T1 sequence (looked up): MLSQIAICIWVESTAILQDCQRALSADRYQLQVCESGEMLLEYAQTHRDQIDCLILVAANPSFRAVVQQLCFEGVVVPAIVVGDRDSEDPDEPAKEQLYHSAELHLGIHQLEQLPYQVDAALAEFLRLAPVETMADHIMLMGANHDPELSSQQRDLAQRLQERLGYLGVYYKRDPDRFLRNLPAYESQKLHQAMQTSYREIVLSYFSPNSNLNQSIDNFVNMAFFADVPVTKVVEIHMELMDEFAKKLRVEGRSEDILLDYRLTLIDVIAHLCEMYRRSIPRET


How the values were obtained:
[1] = target: the molecule itself; assay: SEC; Superdex 75 1660 prep grade column, step of the purification after Ni-NTA
KaiA = target: T1, KaiA; assay: co-IP; in vitro KaiABC clock reaction of purified proteins (KaiC present), time course; KaiB-FLAG precipitated with monoclonal anti-FLAG M2 antibody, eluted with 3xFLAG peptide; KaiA left in the supernatant quantified by SDS-PAGE (SYPRO Ruby) against 1.5 uM GFP as internal standard; conditions: both partners purified

Binder	stoichiometry N [1]	binding result (KaiA)
C-terminal domain of KaiA (residues 181-284) (domain or fragment, Synechococcus elongatus, UniProt Q79PF6 181-284, looked up, KaiA of Synechococcus elongatus, C-terminal domain, residues 181-284; Uniformly 15N labelled, grown in deuterated water, for NMR; Purified as described in Chang et al, 2011, 2012; Tseng et al, 2014; also called C-terminal KaiA; source: E. coli BL21(DE3), M9 media with 15N NH4Cl in 98% D2O, purified (Ni-NTA, SEC on Superdex 75)) NLPAYESQKLHQAMQTSYREIVLSYFSPNSNLNQSIDNFVNMAFFADVPVTKVVEIHMELMDEFAKKLRVEGRSEDILLDYRLTLIDVIAHLCEMYRRSIPRET	2	
KaiB-FLAG (natural protein, Synechococcus elongatus, UniProt Q79PF5 1-102, looked up, KaiB, circadian clock protein of Synechococcus elongatus; also called FLAG-tagged KaiB; source: expressed and purified as previously described (Phong et al, 2013); anion exchange on HiTrap Q columns) MSPRKTYILKLYVAGNTPNSVRALKTLKNILEVEFQGVYALKVIDVLKNPQLAEEDKILATPTLAKVLPLPVRRIIGDLSDREKVLIGLDLLYGELQDSDDF		binds
